Results from the supplement of paper PMC10567573.

B1: TMEM120A (parent)
chain: YQSFVQFLQYYYQSGCLYRLRALG
B2: DLC1 (parent)
chain: HVTHWMGQPFNSDDRNTACHHGLV

Variants of: B1
Test: protein stability index of a GFP-peptide fusion (GPS, HEK-293T) (PSI 1-6); higher = more stable
Details: c terminus: a fixed tail appended
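Also: lentivirally expressed fusions sorted by FACS into six bins by GFP to DsRed ratio, PSI derived from sequencing read proportions per bin multiplied by bin number.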

| Variant | protein stability index |
| --- | --- |
| YQSFVQFLQYYYQQGCLYRLRALG [S14Q] | 2.52 |
| YQSFVQFLQYYYQEGCLYRLRALG [S14E] | 2.56 |
| YQSFVQFLQYYYQNGCLYRLRALG [S14N] | 4.03 |
| YQSFVQFLQYYYQMGCLYRLRALG [S14M] | 2.02 |
| YQSFVQFLQYYYQRGCLYRLRALG [S14R] | 1.84 |
| YQSFVQFLQQYYQSGCLYRLRALG [Y10Q] | 2.35 |
| YQSFVQFLQSYYQSGCLYRLRALG [Y10S] | 2.58 |
| YQSFVQFLQAYYQSGCLYRLRALG [Y10A] | 1.83 |
| YQSFVQFLQYYYNSGCLYRLRALG [Q13N] | 2.81 |
| YQSFVQFLQYYYFSGCLYRLRALG [Q13F] | 2.43 |
| YQSFVQFLQYYYHSGCLYRLRALG [Q13H] | 2.75 |
| YQSFVQFLQYYYTSGCLYRLRALG [Q13T] | 1.8 |
| YQSFVQFLQYYYQSGCLYRLRLLG [A22L] | 3.17 |
| YQSFVQFLQYYYQSGCLYRLRHLG [A22H] | 4.48 |
| YQYFVQFLQYYYQSGCLYRLRALG [S3Y] | 4.62 |
| YQAFVQFLQYYYQSGCLYRLRALG [S3A] | 1.05 |
| YQTFVQFLQYYYQSGCLYRLRALG [S3T] | 2.88 |
| YQHFVQFLQYYYQSGCLYRLRALG [S3H] | 2.33 |
| YQLFVQFLQYYYQSGCLYRLRALG [S3L] | 3.8 |
| YQSFVQFLQYYYQSGCLERLRALG [Y18E] | 2.07 |
| YQSFVQFLQYYYQSGCLKRLRALG [Y18K] | 1.86 |
| YQSFVQFLQYYYQSGCLIRLRALG [Y18I] | 2.96 |
| YQSFVQFLQYYYQSGCLTRLRALG [Y18T] | 1.9 |
| YQSFVQFLQYSYQSGCLYRLRALG [Y11S] | 3.12 |
| YQSFVQFLQYMYQSGCLYRLRALG [Y11M] | 3.5 |
| YQSFVQFLQYLYQSGCLYRLRALG [Y11L] | 1.34 |

| Variant | protein stability index |
| --- | --- |
| EQSFVQFLQYYYQSGCLYRLRALG [Y1E] | 1.49 |
| MQSFVQFLQYYYQSGCLYRLRALG [Y1M] | 2.68 |
| YQSFVQFLQYYYQSGCLYRLRAPG [L23P] | 2.6 |
| YQSFVQFLQYYYQSGCLYRERALG [L20E] | 2.34 |
| YQSFVQFLQYYYQSGCLYRRRALG [L20R] | 1.47 |
| YQSFVQFLQYYYQSGCLYRKRALG [L20K] | 3.64 |
| YQSVVQFLQYYYQSGCLYRLRALG [F4V] | 4.44 |
| YQSRVQFLQYYYQSGCLYRLRALG [F4R] | 1.62 |
| YQSIVQFLQYYYQSGCLYRLRALG [F4I] | 3.47 |
| YQSFVQFLQYYYQSGCLYVLRALG [R19V] | 1.95 |
| YQSFVQFLQYYYQSGCLYYLRALG [R19Y] | 2.66 |
| YQSFVQFLQYYYQSGCLYELRALG [R19E] | 2.1 |
| YQSFVQFLQYYYQSGCLYPLRALG [R19P] | 2.84 |
| YQSFVQFLQYYYQSGCLYHLRALG [R19H] | 3.88 |
| YQSFVQFDQYYYQSGCLYRLRALG [L8D] | 1.91 |
| YQSFVQFEQYYYQSGCLYRLRALG [L8E] | 1.66 |
| YQSFVQFLQYYYQSGCLYRLRALT [G24T] | 2.27 |
| YQSFVQFLQYYYQSGCLYRLRALN [G24N] | 1.07 |
| YQSFVQFLQYYYQSGCLYRLRALC [G24C] | 1.89 |
| YQSFVQFLQYYYQSGCLYRLRALA [G24A] | 1.65 |
| YQSFVQFLQYYYQSGCLYRLRALL [G24L] | 2.97 |
| YQSFVQFLQYYYQSGCLYRLRALK [G24K] | 3.01 |
| YQSFVQFLQYYYQSGCLYRLRALP [G24P] | 2.47 |
| YQSFVQFLQYYYQSGCLYRLRALR [G24R] | 2.65 |
| YLSFVQFLQYYYQSGCLYRLRALG [Q2L] | 3.88 |
| YASFVQFLQYYYQSGCLYRLRALG [Q2A] | 2.37 |

| Variant | protein stability index |
| --- | --- |
| YYSFVQFLQYYYQSGCLYRLRALG [Q2Y] | 1.83 |
| YFSFVQFLQYYYQSGCLYRLRALG [Q2F] | 3.7 |
| YQSFVQFLWYYYQSGCLYRLRALG [Q9W] | 2.71 |
| YQSFVQFLAYYYQSGCLYRLRALG [Q9A] | 2.91 |
| YQSFVQFLCYYYQSGCLYRLRALG [Q9C] | 2.9 |
| YQSFVQFLLYYYQSGCLYRLRALG [Q9L] | 2.74 |
| YQSFVQFLQYYYQSGCLYRLDALG [R21D] | 2.28 |
| YQSFVQFLQYYYQSGCLYRLFALG [R21F] | 1.58 |
| YQSFVQFLQYYYQSGCLYRLQALG [R21Q] | 2.76 |
| YQSFVQFLQYYFQSGCLYRLRALG [Y12F] | 2.15 |
| YQSFVQFLQYYRQSGCLYRLRALG [Y12R] | 2.3 |
| YQSFVQFLQYYLQSGCLYRLRALG [Y12L] | 1.19 |
| YQSFVQFLQYYIQSGCLYRLRALG [Y12I] | 2.34 |
| YQSFVQFLQYYHQSGCLYRLRALG [Y12H] | 2.51 |
| YQSFQQFLQYYYQSGCLYRLRALG [V5Q] | 1.89 |
| YQSFIQFLQYYYQSGCLYRLRALG [V5I] | 3.51 |
| YQSFCQFLQYYYQSGCLYRLRALG [V5C] | 2.31 |
| YQSFMQFLQYYYQSGCLYRLRALG [V5M] | 2.91 |
| YQSFVNFLQYYYQSGCLYRLRALG [Q6N] | 2.48 |
| YQSFVWFLQYYYQSGCLYRLRALG [Q6W] | 3.03 |
| YQSFVFFLQYYYQSGCLYRLRALG [Q6F] | 1.8 |
| YQSFVVFLQYYYQSGCLYRLRALG [Q6V] | 2.92 |
| YQSFVQFLQYYYQSWCLYRLRALG [G15W] | 1.9 |
| YQSFVQFLQYYYQSGNLYRLRALG [C16N] | 1.04 |
| YQSFVQFLQYYYQSGRLYRLRALG [C16R] | 2.24 |
| YQSFVQFLQYYYQSGTLYRLRALG [C16T] | 2.12 |

Variants of: B2
Test: as above
Details: c terminus: a fixed tail appended

| Variant | protein stability index |
| --- | --- |
| HVTHWMGQPFNSDDRNTACHHELV [G22E] | 2.59 |
| HVTHWMGQPFNSDDRNTACHHDLV [G22D] | 2.29 |
| HVTHWMGQPFNSDDRNTACHHRLV [G22R] | 2.13 |
| HVTHWMGQPFESDDRNTACHHGLV [N11E] | 2.58 |
| HVTHWMGQPFWSDDRNTACHHGLV [N11W] | 3.88 |
| HVTHWMGQPFCSDDRNTACHHGLV [N11C] | 2.17 |
| HVTHWMGQPFKSDDRNTACHHGLV [N11K] | 1.86 |
| HVTHWMGQPFNSDKRNTACHHGLV [D14K] | 1.47 |
| HVTHWMGQPFNSDFRNTACHHGLV [D14F] | 2.35 |
| HVTHWMGQPFNSDLRNTACHHGLV [D14L] | 1.31 |
| HVTHWMGQPFNSDSRNTACHHGLV [D14S] | 1.83 |
| HVTHWMGQPFNSDNRNTACHHGLV [D14N] | 1.86 |
| HVTHQMGQPFNSDDRNTACHHGLV [W5Q] | 3.47 |
| HVTHNMGQPFNSDDRNTACHHGLV [W5N] | 3.86 |
| HVTHDMGQPFNSDDRNTACHHGLV [W5D] | 4.27 |
| HVTHPMGQPFNSDDRNTACHHGLV [W5P] | 3.3 |
